Results on 30 sequences are retold here after the nanobody polyreactivity screen of Harvey et al. (2022).

The data set is described as follows: yeast display, Sf9 membrane polyspecificity reagent, FACS + sequencing; frameworks hold sequencing errors. The procedure, abridged:
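In a synthetic yeast display library (Saccharomyces cerevisiae BJ5465), nanobody expression was induced with galactose for 36–48 hours. FACS gates were set low and high (top ~1%) using anti-HA fluorescence for expression and streptavidin fluorescence for binding of the Sf9 membrane reagent. Each polyreactivity label is drawn from the gate of origin.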
“QVQLVESGGGLVQAGGSLRLSSAASGSTFDYYAMGWYRQAPGKERELVAAISTSGSSTYYADSVKGRFTISGDNAKNTVYLQMNSLKPEDTAVYYCAAPIRYKGGYWGQGTQVTVSS”: the “polyreactivity (PSR sort gate)” value is reported as “low polyreactivity”.
Under “QVQLVESGGGLVQAGGSLRLSSAASGSTFLVYSMGWSRQAPGKERELVAAIRGAGSTNYADSVKGRFTISRDNAKNTVYLQMIRLKPEDTAVYYCAAYLLYTPSMDYWGQGTQVTVSS” stands “low polyreactivity”; under “QVQLVESGGGLVQAGGSLRLSSAASGSTFLYYAMGWYRQAPGKERELVATITDGGSTNYADSVKGRFTISRDNAKNTVYLQMNSLKPEDTAVYYCATDSYHYSYGYSSLPEYDYWGQGTQVTVSS”, “low polyreactivity”; under “QVQLVESGGGLVQAGGSLRLSSAASGSTFLYYVMGWYRQARGKERELVAGITSRGASTYYADSVKGRFTFSRDNAKNTVYLQMNSLKPEDTAVYDCAKPGFTYPGRYNYWGQGTQVTVSS”, “high polyreactivity”.
Under “QVQLVESGGGLVQAGGSLRLSSAASGSTFPNYAMGWYRQAPGKERELVAAITSSTGRTYYADSVKGRFTISRDTAKNSVYVPLHSLKPADTAVYYCNAEVYSDPYNDHDYWGQGTQVTVSS” stands “low polyreactivity”; under “QVQLVESGGGLVQAGGSLRLSSAASGSTFRFNAKGWYRQAPGKERELVARISTIGGNTFYADSVKGRFTISRDNAKNTVYLQMNSLKTEDTAVYYCATTGGPSCRKYVYWGQGTQVTVSS”, “high polyreactivity”.
To “QVQLVESGGGLVQAGGSLRLSSAASGSTFRKNAMGWYRQAPGKERELVASISISGGRTNYADSVKGRFTISRDNAKNTVYLQMNSLKPEDTAVYYCAKQVKSYRTRYTFDYWGQGTQVTVSS” belongs “high polyreactivity”.
With “QVQLVESGGGLVQAGGSLRLSSAASGSTFTFYAMGWYRQAPGKERELVATISWSTGTTYYADSVKGRFTISRDNAKNTVYLQMNSLKPEVTAVYYCAAPWSYRYDYWGQGTQVTVSS”, the “polyreactivity (PSR sort gate)” value is given as “low polyreactivity”.
To “QVQLVESGGGLVQAGGSLRLSSAASGSTFTSYAMGWYRQAPGNEWELVAAINSGGGTNYADSVKGRFTISRDNAKNTVYLQMNSLKPEDTAVYYCAKSRYDYTKTEGGYWGQGTQGTVSS” belongs “low polyreactivity”; to “QVQLVESGGGLVQAGGSLRLSSAASGSTFWFNAMGWYRQAPVKERELVAGISERGGRTYYADSVKGRFTISRDNAKNTVYLQMNRLKPEDPAVYYSNAGISPRRTTYYKYDYWGQGTQVNVSS”, “high polyreactivity”.
For “QVQLVESGGGLVQAGGSLRLSSAASGSTIYYYAMGLYRQAPGKEREFVATITQSGGSTYYADSVKGRFTISRDNAKNTVYLQMNSLKPEDTAVYYCAADSWEVDEADIYNSWGQGSQVTVSS”, the “polyreactivity (PSR sort gate)” value is listed as “low polyreactivity”.
To “QVQLVESGGGLVQAGGSLRLSSAASRRIFSEYAMGWNRPEPGKERELVAAISKSGGRTYYADSVKGRFTISRDNAKNTVYFQMNSLKPEETAVDYCNARAVYPAGYAYDYWGQGTQVTVSS” belongs “high polyreactivity”; to “QVQLVESGGGLVQAGGSLRLSSAATGFTFDKYAMGWYRQAPGKERELVAASSGSGGTTYYADSVKGRFTISRDNAKNTVYLQMNSLKPEDTAVYYCATRLYSIYSYGYWGHGTQVTVSS”, “high polyreactivity”.
Under “QVQLVESGGGLVQAGGSLRLSSAATGGIFYSNAMGWYRQAPGKERELVAAITRSGTSTYYADSVKGRFTISRDNAKNTVYLQMNSLKPEDTAVYYCAADYRYRRSRGHVSKLYYWGQGTQGTVSS” stands “low polyreactivity”; under “QVQLVESGGGLVQAGGSLRLSSAATGSTSFQNAMGWYRQAPGKEREFVAAISGSGDRTNYADSVKGRFTISRDNAKNTVYLQMNSLIPEDTAVYYCAAVRGYPPTNYYYWGQGTQVTVSS”, “high polyreactivity”; under “QVQLVESGGGLVQAGGSLRLSSADSGRIFRGYAMRLYRQAAGKVREFVAAISWGGGSKYYADSEKGRFTISRDNPKNTVYLQMNSLTPEDSAVYYCAAGSPYAYNYWGQGPQVTVSS”, “high polyreactivity”.
Under “QVQLVESGGGLVQAGGSLRLSSADSGSIFVYYAMGWYRQEPGKESELVATIRSSGARTYYADSVKGRFTISRDNAKNTVYLQINSLKPEDTAVYYCNARYVPYWAYGYGYWGQGTQVTVSS” stands “high polyreactivity”.
On to “QVQLVESGGGLVQAGGSLRLSSAGSGSIFRVYALGWYRQAPGKERELVAVISIAGRTNYADSVKGRFTISRDNAKNTVYLQMNSLKPEDTAVYYCNAGGDGVATGYDYWGQGTQVTVSS”, for which the “polyreactivity (PSR sort gate)” value is listed as “low polyreactivity”.
Under “QVQLVESGGGLVQAGGSLRLSSAGSGSTFIIYAMGWYRQAPGKERELVAAISWSGGSTYYADSVKGRFTISRDNAKNTVYLQMNSLKPEDTEVYYWAVVYRTRWSDYDYWGQGTQVTVSS” stands “low polyreactivity”; under “QVQLVESGGGLVQAGGSLRLSSAHSGFIFAHNARGRYRQAPGKERELVAAITSSGGSTYYADSVKGRFRISRDNAKNTVYLQMNSVKPEDTAVYYCNDYTYARRGYDEWGQGTQVTVSS”, “high polyreactivity”.
In the case of “QVQLVESGGGLVQAGGSLRLSSAPSGNTFYWYVMGWYRHAPGKERELVARINSSGGTTNYADSVKGRFTISRDNAKNTVYFQMNSLKPEVTAVYYCAADDIYLYGGGTDYYFCGQGTQVTVSS”, the “polyreactivity (PSR sort gate)” value is “low polyreactivity”.
To “QVQLVESGGGLVQAGGSLRLSSASSGSTFPGYTMRWYRPAPGKARELVAYITASDSSTYYADSEKGRFTISRDNAKNTVYLQINSLKPEDTAVYYSAKPPRHTWSFVDYRYEYWGQGTQGTVSS” belongs “low polyreactivity”.
To “QVQLVESGGGLVQAGGSLRLSSPASGRTFGRYTMGWYRQAPGKESELVATISYNGGRTYYADSVKGRFTISRDNAKNTVYLQMNSRKPEDTAVNYCATRLPKSSLHDYWGQGTQVTVSS” belongs “high polyreactivity”; to “QVQLVESGGGLVQAGGSLRLSSPDSGLIFYLYAMGWYRQSHGKEREFVAAITSGGGSTYYADSVKGRFTISRDNAKNTVYLQINILIPEDTAVFYCAARLVLYITVVYEVDYWGQGTQVTVSS”, “low polyreactivity”.
To “QVQLVESGGGLVQAGGSLRLSSSASGRISGRNAMGWYRQAPGKERELVAVITRGDTNYADSVKGRFTISRDNAKNTVYLQMNSLKPEDTAVYYCAKEPLASGWGYDYWGQGTQVTVSS” belongs “high polyreactivity”; to “QVQLVESGGGLVQAGGSLRLSWAASGFTFKYNAMGLYRQAHGKERELVAAISGSGGRTYYSDSVKGRFTISRDNAKNTVYLQMNSLKPEYTAVYYCAAVYLVTLGARYDYWGQGTQVTVSS”, “high polyreactivity”.
With “QVQLVESGGGLVQAGGSLRLSWAASGFTFNRYAMGWYRQAPGKERELVAAISGSGASTYYADSVKGRFTISRDNAKNTVYLQMNSLKPEDTAVYYCATRYSRSYRSRDYYYWGQGTQVTVSS”, the “polyreactivity (PSR sort gate)” value is “high polyreactivity”.
To “QVQLVESGGGLVQAGGSLRLSWAASGFTFSVYAMGWYRQAPGKERELVAAISSGGSTNYADSVKGRFTISRDNAKITVYFQMNSLKPEDTAVYYCADSITVGYSNYYYWGQGSQVTVSS” belongs “high polyreactivity”; to “QVQLVESGGGLVQAGGSLRLSWAASGGPFSSYDMGWYRQAPGTERELVADITNGGSTNFADSVKGRCTISRDNAKNTVYLQMNSLKPEDTAVYYCATDSYPGLNPDFDYWGHGTQVTVSS”, “low polyreactivity”; to “QVQLVESGGGLVQAGGSLRLSWAASGITFDDYAMGWYRPAPGKERELVAAITWSGDSTYYADSVKGRFTISRDNAKNTVYLQMNSLKPEDTAVYYCAAVSYYWGQGTQVTVSS”, “high polyreactivity”.
